Experimental data as given in patent US20160326219A1, “OPTICALLY ACTIVATED RECEPTORS” (IST AUSTRIA (INSTITUTE OF SCIENCE AND TECHNOLOGY AUSTRIA), priority 2013, published 2016).
Where two headings read alike, the source gives them in different places.

Tests used:
[1] = system: MAPK pathway; test: Stimulation and detection of MAPK signaling, PathDetect Elk1 luciferase reporter (HEK293 cells); type: cell-based, human; conditions: for MAPK pathway activation in response to red light: HEK293 cells, PCB incubation, ~0.05 μW/mm^2; for MAPK pathway activation in response to blue light: HEK293 cells expressing the fusion protein (LOV domain fused to RTK intracellular domain), ~3 μW/mm^2
Experimental: For light stimulation of cells, an incubator (PT2499, ExoTerra/HAGEN, Holm, Germany) was equipped with 300 light emitting diodes (JS-FS505ORGB-W30 with JS-CON-004 controller, Komerci, Ebern, Germany; λmax˜630 nm (red), λmax˜530 nm (green), λmax˜470 nm (blue), bandwidth ˜±5 nm). Light intensity was controlled with an analog dimmer and measured with a digital power meter (PM120VA, Thorlabs, Munich, Germany). Intensities at maximal output were 2.3 (red), 2.6 (green) and 3.3 (blue light) W/m^2. For stimulation over extended time periods (>8 h), an aluminium box was equipped with the same light-emitting diodes and controller and placed in an incubator with standard tissue culture conditions (see below).
HEK293 cells and CHO-K1 (American Type Culture Collection (ATCC), Manassas, Va.) cells were maintained in DMEM supplemented with 10% FBS, 100 U/ml penicilin and 0.1 mg/ml streptomycin in a humidified incubator with 5% CO2 atmosphere. After trypsination, 5×10^4 cells were seeded in each well of 96-well plates (three to four wells for each construct) coated with poly-L-ornithine (Sigma, Vienna, Austria). Either transparent plates or black clear bottom plates were used. Cells were transfected using Lipofectamine 2000 (Invitrogen/LifeTech).
Phycocyanobilin (PCB; Livchem Logistics GmbH, Frankfurt a.M., Germany) was dissolved in a dark room to a stock concentration of 10 mM in DMSO. Aliquots were stored in the dark at −20° C. Prior to experiments, cells were incubated with 50 μM PCB overnight in reduced serum starve medium at 37° C. PCB could also be applied to applied to living animals as it is non-toxic even in high doses (0.17% of diet or 10 mg/kg) (McCarty (2007).
Activation of the MAPK pathway was assayed with the PathDetect Elk1 trans-Reporting System (Agilent) consisting of an Elk1 phosphorylation-dependent trans-activator and a luciferase-based trans-reporter. Cells were transfected with 213.3 ng total DNA per well (receptor, trans-activator and trans-reporter at ratio of 1:3:60 or 1:30:600) using Lipofectamine 2000. Six h after transfection medium was replaced with CO2-independent reduced serum starve medium (Gibco/Life Technologies; supplemented with 0.5% FBS, 2 mM L-Glutamine, 100 U/ml penicilin and 0.1 mg/ml streptomycin) for 18 h at 37° C. Cells were transferred and were either kept under constant illumination for 8 h or were protected from light. Chemical stimulation of imFGFR1 followed the same procedure, except that 10 nM AP20187 ((Clackson 1998); ARIAD Pharmaceuticals, Cambridge, Mass.) were added before transfer to the stimulation incubator. After incubation, plates were washed once with PBS and luciferase was detected with standard, off-the-shelf reagents. These were either Luciferase 1000 Assay System (Promega, Mannheim, Germany) in combination with a microplate reader equipped with an injector (Tecan Infinite 200 Pro, Maennedorf, Switzerland), or ONE-Glo Assay System (Promega) in combination with a microplate reader not equipped with an injector (BioTek Synergy H1). These assay systems provide equivalent results.

[2] = target: LOV domains; conditions: cited from earlier work

rtrkB-SyCP1-PHY: chimeric receptor of rat trkB catalytic domain and SyCP1-PHY, SEQ ID NO: 67
MAPK pathway activation in response to red light [1]: activate the canonical MAPK pathway

imFGFR1: chemically-inducible mFGFR1 lacking ligand-binding modules, with a single FKBP domain, SEQ ID NO: 56 [reference compound]
MAPK pathway activation in response to blue light [1]: no effect

B1: OdPA1-LOV: LOV domain of O. danica aureochrome1-like protein, residue 180 to 312 of C5NSW6, SEQ ID NO: 14 (protein, listed as Ochromonas danica)
chain: PDYSLVKALQTAQQNFVISDPSIPDNPIVYASQGFLTLTGYALSEVLGRNCRFLQGPETDPKAVEKVRKGLERGEDTTVVLLNYRKDGSTFWNQLFIAALRDGEGNVVNYLGVQCKVSEDYAKAFLKNEENEK
MAPK pathway activation in response to blue light [1]: blue light-induced activation of MAPK signaling with amplitudes similar to that of the original Opto-mFGFR1
Blue light intensity at which activation is already achieved [1]: 0.25 mW/cm^2

B2: mFGFR1-SyCP1-PHY: chimeric receptor of mFGFR1 catalytic domain and SyCP1-PHY, SEQ ID NO: 66 (protein)
chain: MGSSKSKPKDPSQRLDMKSGTKKSDFHSQMAVHKLAKSIPLRRQVTVSADSSASMNSGVLLVRPSRLSSSGTPMLAGVSEYELPEDPRWELPRDRLVLGKPLGEGCFGQVVLAEAIGLDKDKPNRVTKVAVKMLKSDATEKDLSDLISEMEMMKMIGKHKNIINLLGACTQDGPLYVIVEYASKGNLREYLQARRPPGLEYCYNPSHNPEEQLSSKDLVSCAYQVARGMEYLASKKCIHRDLAARNVLVTEDNVMKIADFGLARDIHHIDYYKKTTNGRLPVKWMAPEALFDRIYTHQSDVWSFGVLLWEIFTLGGSPYPGVPVEELFKLLKEGHRMDKPSNCTNELYMMMRDCWHAVPSQRPTFKQLVEDLDRIVALTSNQEYLDLSIPLDQYSPSFPDTRSSTCSSGEDSVFSHEPLPEEPCLPRHPTQLANSGLKRRVETGATTVQLSDQSLRQLETLAIHTAHLIQPHGLVVVLQEPDLTISQISANCTGILGRSPEDLLGRTLGEVFDSFQIDPIQSRLTAGQISSLNPSKLWARVMGDDFVIFDGVFHRNSDGLLVCELEPAYTSDNLPFLGFYHMANAALNRLRQQANLRDFYDVIVEEVRRMTGFDRVMLYRFDENNHGDVIAEDKRDDMEPYLGLHYPESDIPQPARRLFIHNPIRVIPDVYGVAVPLTPAVNPSTNRAVDLTESILRSAYHCHLTYLKNMGVGASLTISLIKDGHLWGLIACHHQTPKVIPFELRKACEFFGRVVFSNISAQEDTETFDYRVQLAEHEAVLLDKMTTAADFVEGLTNHPDRLLGLTGSQGAAICFGEKLILVGETPDEKAVQYLLQWLENREVQDVFFTSSLSQIYPDAVNFKSVASGLLAIPIARHNFLLWFRPEVLQTVNWGGDPNHAYEATQEDGKIELHPRQSFDLWKEIVRLQSLPWQSVEIQSALALKKAIVNLILRQAEETGGSGVDYPYDVPDYALD
modifications: redOpto-mFGFR1
MAPK pathway activation in response to red light [1]: activate the canonical MAPK pathway

B3: NgPA1-LOV: LOV domain of N. gaditana hypothetical protein NGA_0015702, residue 87 to 228 of K8Z861, SEQ ID NO: 12 (protein, listed as Nannochloropsis gaditana)
chain: PDYTLVKALQTAQQNFVITDPTLPDNPIVYASGGFLSLTGYQMDQILGRNCRFLQGPDTDPAAVDKIRRAIEDGTDGSVCLLNYRADGSTFWNQFFIAALRGADGNIVNYVGVQCKVSEEYASEVLKKEATSSTVAEASSKR
MAPK pathway activation in response to blue light [1]: blue light-induced activation of MAPK signaling with amplitudes similar to that of the original Opto-mFGFR1
Blue light intensity at which activation is already achieved [1]: 0.25 mW/cm^2

B4: Opto-mFGFR1-R195E: Opto-mFGFR1 with charge inversion mutation R195E that prevents kinase domain dimer formation (protein)
chain: MGSSKSKPKDPSQRLDMKSGTKKSDFHSQMAVHKLAKSIPLRRQVTVSADSSASMNSGVLLVRPSRLSSSGTPMLAGVSEYELPEDPRWELPRDRLVLGKPLGEGCFGQVVLAEAIGLDKDKPNRVTKVAVKMLKSDATEKDLSDLISEMEMMKMIGKHKNIINLLGACTQDGPLYVIVEYASKGNLREYLQAREPPGLEYCYNPSHNPEEQLSSKDLVSCAYQVARGMEYLASKKCIHRDLAARNVLVTEDNVMKIADFGLARDIHHIDYYKKTTNGRLPVKWMAPEALFDRIYTHQSDVWSFGVLLWEIFTLGGSPYPGVPVEELFKLLKEGHRMDKPSNCTNELYMMMRDCWHAVPSQRPTFKQLVEDLDRIVALTSNQEYLDLSIPLDQYSPSFPDTRSSTCSSGEDSVFSHEPLPEEPCLPRHPTQLANSGLKRRVETGPDYSLVKALQMAQQNFVITDASLPDNPIVYASRGFLTLTGYSLDQILGRNCRFLQGPETDPRAVDKIRNAITKGVDTSVCLLNYRQDGTTFWNLFFVAGLRDSKGNIVNYVGVQSKVSEDYAKLLVNEQNIEYKGVRTSNMLRRKTGGSGVDYPYDVPDYALD
MAPK pathway activation in response to blue light [1]: no MAPK pathway activation

B5: SyCP1-PHY: PHY domain of Synechocystis PCC6803 CPH1, residue 2 to 514 of Q55168, SEQ ID NO: 64 (protein)
chain: ATTVQLSDQSLRQLETLAIHTAHLIQPHGLVVVLQEPDLTISQISANCTGILGRSPEDLLGRTLGEVFDSFQIDPIQSRLTAGQISSLNPSKLWARVMGDDFVIFDGVFHRNSDGLLVCELEPAYTSDNLPFLGFYHMANAALNRLRQQANLRDFYDVIVEEVRRMTGFDRVMLYRFDENNHGDVIAEDKRDDMEPYLGLHYPESDIPQPARRLFIHNPIRVIPDVYGVAVPLTPAVNPSTNRAVDLTESILRSAYHCHLTYLKNMGVGASLTISLIKDGHLWGLIACHHQTPKVIPFELRKACEFFGRVVFSNISAQEDTETFDYRVQLAEHEAVLLDKMTTAADFVEGLTNHPDRLLGLTGSQGAAICFGEKLILVGETPDEKAVQYLLQWLENREVQDVFFTSSLSQIYPDAVNFKSVASGLLAIPIARHNFLLWFRPEVLQTVNWGGDPNHAYEATQEDGKIELHPRQSFDLWKEIVRLQSLPWQSVEIQSALALKKAIVNLILRQAEE
modifications: Synechocystis PCC6803
Red light intensity at which activation is already achieved ([1]; red light): 5.8 μW/cm^2
Red light intensity at which activation is already achieved, converted ([1]; red light, conversion of 5.8 μW/cm^2): 0.0058 mW/cm^2

B6: Opto-hRET: fusion of human RET catalytic domain and VfAU1-LOV, SEQ ID NO: 60 (protein)
chain: MGSSKSKPKDPSQRLDVTGHCYHKFAHKPPISSAEMTFRRPAQAFPVSYSSSSARRPSLDSMENQVSVDAFKILEDPKWEFPRKNLVLGKTLGEGEFGKVVKATAFHLKGRAGYTTVAVKMLKENASPSELRDLLSEFNVLKQVNHPHVIKLYGACSQDGPLLLIVEYAKYGSLRGFLRESRKVGPGYLGSGGSRNSSSLDHPDERALTMGDLISFAWQISQGMQYLAEMKLVHRDLAARNILVAEGRKMKISDFGLSRDVYEEDSYVKRSQGRIPVKWMAIESLFDHIYTTQSDVWSFGVLLWEIVTLGGNPYPGIPPERLFNLLKTGHRMERPDNCSEEMYRLMLQCWKQEPDKRPVFADISKDLEKMMVKRRDYLDLAASTPSDSLIYDDGLSEEETPLVDCNNAPLPRALPSTWIENKLYGRISHAFTRFTGGPDYSLVKALQMAQQNFVITDASLPDNPIVYASRGFLTLTGYSLDQILGRNCRFLQGPETDPRAVDKIRNAITKGVDTSVCLLNYRQDGTTFWNLFFVAGLRDSKGNIVNYVGVQSKVSEDYAKLLVNEQNIEYKGVRTSNMLRRKPGGSGVDYPYDVPDYALD
modifications: hRET-VfAU1-LOV
MAPK pathway activation in response to blue light [1]: robust activation

B7: NcVV-LOV: LOV domain of N. crassa vivid, residue 37 to 186 with Y50W mutation of Q9C3Y6, SEQ ID NO: 8 (protein, listed as Neurospora crassa)
chain: HTLYAPGGYDIMGWLIQIMNRPNPQVELGPVDTSCALILCDLKQKDTPIVYASEAFLYMTGYSNAEVLGRNCRFLQSPDGMVKPKSTRKYVDSNTINTMRKAIDRNAEVQVEVVNFKKNGQRFVNFLTMIPVRDETGEYRYSMGFQCETE
Kd ([2]; dark state, read-out: Estimated KD, Dark): < 5000 nM
Kd ([2]; light state, read-out: Estimated KD, Light): < 500 nM
